We go through 1 molecule from article PMC11979331, “RcSRR1 interferes with the RcCSN5B-mediated deneddylation of RcCRL4 to modulate RcCO proteolysis and prevent rose flowering under red light”.

The data set concerns the target T1, RcFRSL3 (UniProt A0A2P6RRT4 1-153).
T1 sequence: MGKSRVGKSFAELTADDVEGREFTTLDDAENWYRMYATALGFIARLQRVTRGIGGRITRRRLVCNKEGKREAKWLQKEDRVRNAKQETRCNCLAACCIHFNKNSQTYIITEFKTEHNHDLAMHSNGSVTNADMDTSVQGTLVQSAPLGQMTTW
Briefly: EMSA; Light Shift Chemiluminescent EMSA kit (buffer per manufacturer), about 2 ug protein, 24 C, 20 min; 6% native PAGE in 0.5x TBE; pH and salt not given. To be noted: protein: recombinant; tags: GST (pGEX4T-1) per construct section; called His-RcFRSL3 in EMSA section; label: 3' biotin on both strands; blunt. (In general: In EMSA bound probe runs differently from free probe, usually more slowly.)

B1: RcSRR1 promoter G-box probe (dsDNA)
DNA 1: TTCAGGTACCGTATTCACGTTTTTCGAAGTTCAGGTACTA
DNA 2: TAGTACCTGAACTTCGAAAAACGTGAATACGGTACCTGAA
Consider B1, for which the binding result was “binds”.
